How the values were obtained:
Lsm1-7 complex [1] = biological target: T1, Lsm1-7 complex (Schizosaccharomyces pombe, UniProt P87173;O94408;Q9Y7M4;O14352;O42978;Q9UUI1;O74499 …); test: fluorescence polarization; 5 mM Mg2+; strongly favored; FP: 200 mM NaCl, 20 mM HEPES pH 7.0, 1 mM DTT, 5 mM MgCl2, 0.3 ug/uL acetylated BSA, 500 pM 5'-FAM RNA, 22 C; conditions: protein: recombinant; tags: N-terminal His6-TEV on Lsm1, TEV-treated; copies: 1;1;1;1;1;1;1; label: 5'-FAM
[2] = biological target: T2, PatMC (Pat1/Pdc2 middle and C-terminal domains);Lsm1-7 complex (Schizosaccharomyces …, UniProt O42958;P87173;O94408;Q9Y7M4;O14352;O42978;Q9UUI1;O74499 …, |); test: fluorescence polarization; 5 mM Mg2+; Hill ~1; affinity not affected by PatMC; FP: 200 mM NaCl, 20 mM HEPES pH 7.0, 1 mM DTT, 5 mM MgCl2, 0.3 ug/uL acetylated BSA, 500 pM 5'-FAM RNA, 22 C; conditions: protein: recombinant;recombinant; tags: none stated in coexpressed complex;N-terminal His6-TEV on Lsm1, TEV-treated; copies: 1;1;1;1;1;1;1;1; label: 5'-FAM
[3] = biological target: T2, PatMC (Pat1/Pdc2 middle and C-terminal …); test: SEC-MALS; stoichiometric RNA; dimeric and tetrameric assemblies; FP: 200 mM NaCl, 20 mM HEPES pH 7.0, 1 mM DTT, 5 mM MgCl2, 0.3 ug/uL acetylated BSA, 500 pM 5'-FAM RNA, 22 C; conditions: protein: recombinant;recombinant; tags: none stated in coexpressed complex;N-terminal His6-TEV on Lsm1, TEV-treated; copies: 1;1;1;1;1;1;1;1
Lsm1-7 complex [4] = biological target: T1, Lsm1-7 complex; test: SEC-MALS; monomeric complex; FP: 200 mM NaCl, 20 mM HEPES pH 7.0, 1 mM DTT, 5 mM MgCl2, 0.3 ug/uL acetylated BSA, 500 pM 5'-FAM RNA, 22 C; conditions: protein: recombinant; tags: N-terminal His6-TEV on Lsm1, TEV-treated; copies: 1;1;1;1;1;1;1

Binder	binding result (Lsm1-7 complex [1])	binding result [2]	binding result [3]	binding result (Lsm1-7 complex [4])
UUUUUUUUUUUUUUU (ssRNA) [U15 (FAM)]	binds	binds		
UUUUUUUUUUUUUUU (ssRNA) [U15 (SEC-MALS)]			binds	binds
